Where a chain is given by its changes, count along the chain named.
What was measured:
[1] = biological target: T1, human PD-L1 protein (monomeric, soluble analyte) (human, UniProt Q9NZQ7 19-238); test: Octet, monomeric human ligand
T1 construct: Recombinant human PD-L1 protein used as analyte on Octet or Biacore; also called monomeric PD-L1; monomeric human ligand

[2] = biological target: T2, human PD-L2 protein (monomeric, soluble analyte) (human, UniProt Q9BQ51 20-220); test: Octet, monomeric human ligand
T2 construct: Recombinant human PD-L2 protein used as analyte on Octet or Biacore; a soluble form would lack the transmembrane part; also called monomeric PD-L2; monomeric human ligand
T2 sequence: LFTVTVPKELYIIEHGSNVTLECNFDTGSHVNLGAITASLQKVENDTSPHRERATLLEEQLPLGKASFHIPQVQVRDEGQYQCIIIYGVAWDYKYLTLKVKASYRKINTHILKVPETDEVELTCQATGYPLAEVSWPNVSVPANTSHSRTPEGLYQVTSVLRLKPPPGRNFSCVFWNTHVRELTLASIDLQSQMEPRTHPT

[3] = biological target: T3, human PD-L1 (CD274) expressed on cells (human, UniProt Q9NZQ7 19-290); test: cell-based or functional assay
T3 sequence (Q9NZQ7 19-290 limits assumed): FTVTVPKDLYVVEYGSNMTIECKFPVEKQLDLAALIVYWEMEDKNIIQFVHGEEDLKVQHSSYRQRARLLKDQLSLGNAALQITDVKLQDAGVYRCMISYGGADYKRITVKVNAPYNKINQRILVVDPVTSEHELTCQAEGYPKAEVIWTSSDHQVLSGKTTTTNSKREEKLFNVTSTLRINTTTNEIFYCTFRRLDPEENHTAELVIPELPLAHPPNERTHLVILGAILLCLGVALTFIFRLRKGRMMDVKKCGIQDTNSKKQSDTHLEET

[4] = biological target: T4, human PD-L2 (PDCD1LG2) expressed on cells (human, UniProt Q9BQ51 20-273); test: cell-based or functional assay
T4 sequence: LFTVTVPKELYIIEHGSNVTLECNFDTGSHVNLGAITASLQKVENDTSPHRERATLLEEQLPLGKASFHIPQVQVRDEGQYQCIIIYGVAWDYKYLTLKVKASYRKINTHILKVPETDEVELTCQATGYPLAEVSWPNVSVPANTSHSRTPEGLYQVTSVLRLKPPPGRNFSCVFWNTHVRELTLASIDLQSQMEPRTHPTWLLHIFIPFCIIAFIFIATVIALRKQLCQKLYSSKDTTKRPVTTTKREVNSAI

Human PD-L1-Fc [5] = biological target: T5, Human PD-L1-Fc (Homo sapiens, UniProt Q9NZQ7); test: Octet, IgG KD, avid format, human PD-L1-Fc
T5 construct: Antigen in Octet IgG KD Human PD-L1-Fc (M) Avid
T5 sequence (Q9NZQ7 19-239 limits assumed): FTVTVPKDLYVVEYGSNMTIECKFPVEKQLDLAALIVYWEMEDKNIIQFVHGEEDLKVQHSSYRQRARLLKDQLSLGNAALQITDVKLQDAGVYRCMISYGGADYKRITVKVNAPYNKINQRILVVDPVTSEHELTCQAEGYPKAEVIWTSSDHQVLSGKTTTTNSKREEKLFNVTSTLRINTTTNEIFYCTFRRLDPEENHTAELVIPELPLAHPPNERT

Human PD-L2-Fc [6] = biological target: T6, Human PD-L2-Fc (Homo sapiens, UniProt Q9BQ51); test: Octet, IgG KD, avid format, human PD-L2-Fc
T6 construct: Antigen in Octet IgG KD Human PD-L2-Fc (M) Avid
T6 sequence (PD-L2-Fc fusion chain, looked up): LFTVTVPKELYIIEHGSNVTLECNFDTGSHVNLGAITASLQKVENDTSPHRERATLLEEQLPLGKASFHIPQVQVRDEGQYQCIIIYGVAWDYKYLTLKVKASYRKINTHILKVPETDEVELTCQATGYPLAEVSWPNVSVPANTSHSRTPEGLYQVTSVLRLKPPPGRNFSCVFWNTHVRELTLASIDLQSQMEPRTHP

[7] = biological target: T1, human PD-L1 protein (monomeric, soluble …); test: Biacore, IgG KD, monovalent format, human PD-L1-His
[8] = biological target: T2, human PD-L2 protein (monomeric, soluble …); test: Biacore, IgG KD, monovalent format, human PD-L2-His
Human INSR BioVendor = biological target: T7, Human INSR BioVendor (Homo sapiens, UniProt P06213-2); test: Octet, IgG KD, monovalent format, human INSR BioVendor
T7 construct: recombinant soluble protein used in Octet, monovalent format; Antigen of the column Octet IgG KD Human INSR BioVendor (M) Monovalent

[9] = biological target: T3, human PD-L1 (CD274) expressed on cells; test: flow cytometry on live transfected HEK293 cells, dose range 0-300 µg/mL
Procedure: (§1) Human HEK293 cells were transfected with expression vectors encoding ZsGreen1 only, or ZsGreen1 and CD274 (PD-L1), PDCD1LG2 (PD-L2), INSR isoform long, INSR Isoform short or CD20 (assay control). […] Cells were washed, and incubated with the same AF647 anti-human IgG Fc detection antibody as used in the cell microarray screens. Cells were again washed, and analyzed by flow cytometry using an Accuri flow cytometer (BD). A 7AAD live/dead dye was used to exclude dead cells in the analysis, and ZsGreen+ (transfected) cells were selected for analysis.
(§2) Interactions were then investigated by flow cytometry.

[10] = biological target: T4, human PD-L2 (PDCD1LG2) expressed on …; test: as above
Procedure: as §1, §2

[11] = biological target: T8, INSR isoform long, over-expressed on HEK293 cells (human, UniProt P06213 28-1382); test: as above
T8 construct: whole, on cells; Long isoform of the UniProt entry; also called INSR long isoform
Procedure: as §1, §2

Human PD-L1-Fc [12] = biological target: T5, Human PD-L1-Fc; test: Octet, column hPD-L1 dimer; unit Molar from the legend
Human PD-L2-Fc [13] = biological target: T6, Human PD-L2-Fc; test: Octet, column hPD-L2 dimer; unit Molar from the legend
mPD-L1 dimer = biological target: T9, mPD-L1 dimer (Mus musculus, UniProt Q9EP73); test: Octet, column mPD-L1 dimer; unit Molar from the legend
T9 construct: also called mouse PD-L1 protein
T9 sequence (Q9EP73 19-238 limits assumed): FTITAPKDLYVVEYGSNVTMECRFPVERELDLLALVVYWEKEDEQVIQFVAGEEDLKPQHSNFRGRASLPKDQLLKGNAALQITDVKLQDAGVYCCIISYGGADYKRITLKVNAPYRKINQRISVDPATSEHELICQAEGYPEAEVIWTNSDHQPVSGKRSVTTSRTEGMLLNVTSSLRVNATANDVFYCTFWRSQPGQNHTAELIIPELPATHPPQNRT
Procedure: (§3) Antibody Characterization. Antibody candidates generated from yeast-surface display screening were tested for the capacity to bind to PD-L1 or PD-L2.

mPD-L2 dimer = biological target: T10, mPD-L2 dimer (Mus musculus, UniProt Q9WUL5); test: Octet, column mPD-L2 dimer; unit Molar from the legend
T10 construct: also called mouse PD-L2 protein
T10 sequence (PD-L2 chain, looked up): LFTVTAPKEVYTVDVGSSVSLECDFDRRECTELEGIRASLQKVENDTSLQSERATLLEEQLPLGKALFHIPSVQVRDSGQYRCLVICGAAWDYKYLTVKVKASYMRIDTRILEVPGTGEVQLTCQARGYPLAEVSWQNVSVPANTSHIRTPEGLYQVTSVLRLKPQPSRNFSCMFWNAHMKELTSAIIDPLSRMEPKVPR
Procedure: as §3

[14] = biological target: T1, human PD-L1 protein (monomeric, soluble …); test: Octet, IgG KD, monovalent format, human PD-L1-His
[15] = biological target: T2, human PD-L2 protein (monomeric, soluble …); test: Octet, IgG KD, monovalent format, human PD-L2-His

T1 sequence (Q9NZQ7 19-238 limits assumed): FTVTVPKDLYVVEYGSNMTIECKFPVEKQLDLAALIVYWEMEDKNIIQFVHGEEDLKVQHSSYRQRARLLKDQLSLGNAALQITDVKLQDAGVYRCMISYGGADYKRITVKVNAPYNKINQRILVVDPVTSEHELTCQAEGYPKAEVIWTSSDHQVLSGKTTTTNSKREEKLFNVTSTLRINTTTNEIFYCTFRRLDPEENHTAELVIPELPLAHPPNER

B1: ADI-38002 (antibody, human IgG1, kappa, V domains shown)
VH: QVQLQQWGAGLLKPSETLSLTCAVYGGSLSGYPWSWIRQPPGKGLEWIGETDVSGWTDYNPSLKSRVTISVDTSKNQFSLKLSSVTAADTAVYYCARDGRRMGTPSFDIWGQGTMVTVSS
VL: DIQMTQSPSSVSASVGDRVTITCRASQDINSFLAWYQQKPGKAPKLLIYAASSLNSGVPSRFSGSGSGTDFTLTISSLQPEDFATYYCQKSVYFPPTFGGGTKVEIKR
notes: Human IgG1 (GASDIE); Some in vivo work used a mouse IgG2a form; also called Ab-38002; test antibody 38002
In the case of B1, the Kd [1] is reported as 7.62 nM, the Kd [2] is reported as 1.9 nM and the “EC50 (read off the curve)” value [3] is reported as roughly 1 nM. For the same binder, the “EC50 (read off the curve)” value [4] was roughly 0.5 nM, the Kd (Human PD-L1-Fc [5]) was 1.28 nM and the Kd (Human PD-L2-Fc [6]) was 0.601 nM. The Kd [7] was 3.76 nM, the Kd [8] was 0.727 nM and the binding result (Human INSR BioVendor) was “no binding”. For the same binder, the EC50 [9] was 0.03 µg/mL, the EC50 [10] was 0.1 µg/mL and the EC50 [11] was 145 µg/mL. The Kd (Human PD-L1-Fc [12]) was 1.28 nM, the Kd (Human PD-L2-Fc [13]) was 0.601 nM and the Kd (mPD-L1 dimer) was 3.2 nM. For the same binder, the Kd (mPD-L2 dimer) was 0.7 nM.

B2: ADI-38004 (antibody, V domains shown)
VH: B1 VH
VL: B1 VL with D28G, N30S, K90S, S91A
A Kd (Human PD-L1-Fc [5]) of 1.22 nM, a Kd (Human PD-L2-Fc [6]) of 0.597 nM and a Kd [14] of 20 nM were found for B2 in this work. The Kd [15] was 2.84 nM, the Kd [7] was 37.7 nM and the Kd [8] was 1.24 nM.

B3: ADI-38003 (antibody, V domains shown)
VH: B1 VH
VL: B1 VL with Q27K, D28G, N30S, S91A
A Kd (Human PD-L1-Fc [5]) of 1.27 nM, a Kd (Human PD-L2-Fc [6]) of 0.377 nM and a Kd [14] of 14.2 nM were found for B3 in this work. It also gave a Kd [15] of 1.02 nM, a Kd [7] of 8.09 nM and a Kd [8] of 0.175 nM.

B4: ADI-37464 (antibody, V domains shown)
VH: B1 VH
VL: B1 VL with D28G, S91A
A Kd (Human PD-L1-Fc [5]) of 1.52 nM, a Kd (Human PD-L2-Fc [6]) of 0.426 nM and a Kd [14] of 6.23 nM were found for B4 in this work. The Kd [15] was 1.6 nM, the Kd [7] was 2.76 nM and the Kd [8] was 0.508 nM.
